Reference: patent US20150067898

Tested on: ssAPC14.2 TALEN right monomer (Xanthomonas TALE-FokI (artificial)?)
Assay: cell_activity
Conditions: pair with p5; repeat 50%; pig fibroblasts

“ACAGAAATTCTGGGT (double strand) [APC14.2 right half-site]” gave an activity of 48 % HDR day 3.
